The record followed here is the supplement of paper PMC10567573.

A short description of the data set: protein stability index of a GFP-peptide fusion (GPS, HEK-293T) (PSI 1-6); higher = more stable.
Where [1] appears, read: treatment: DMSO, c terminus: a fixed tail appended.
Where [2] appears, read: treatment: MLN4924 1 uM, 8 h, c terminus: a fixed tail appended.
Where [3] appears, read: treatment: DMSO, c terminus: native.
Setting [4] is: treatment: MLN4924 1 uM, 8 h, c terminus: native.

± gives the standard deviation.
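Note: 24-mer peptide tiles fused after GFP, lentivirally expressed, FACS-sorted into six equal bins by GFP/DsRed ratio, decoded by Illumina sequencing, PSI is the read-weighted mean bin number.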

As to SSLCYKQRIKSQERETEATRGRGG [MOG], the protein stability index was determined as 5 ± 0.27 under setting [1] and 5.06 ± 0.32 under setting [2].
On the same counts, the results for RSRYDGHRIWMYNCHIGGSFSEET [LOXL2] are 2.17 ± 0.35 and 2.72 ± 0.35.
The corresponding values for DGPCHKRRASICCTQLGSLSALKH [SCARA5] are 3.79 ± 0.11 and 3.65 ± 0.076.
On the same counts, the results for DAETPPRFTRTPVDQTGVSGGVAS [PTPRD] are 5 ± 0.31 and 4.638 ± 0.016.
Regarding RCINDPYLEVLETMDNKKGRRYEA [CLCN6], the protein stability index is, setting by setting: under setting [1], 3.82 ± 0.15; under setting [2], 4.03 ± 0.32.
In the case of RLAQPSSPEVLTPQLSPGSGTPQA [RTN2], the protein stability index by setting is: under setting [1], 5.12 ± 0.12; under setting [2], 4.96 ± 0.2.
For NTFIALALQTLLTLIVVDASGLGL [SLC19A2], the protein stability index reads like this: under setting [1], 3.36 ± 0.57; under setting [2], 3.3 ± 0.27.
On the same counts, the results for KKRRLPPVHIHPAFARQAAQEPSA [FOXJ1] are 3.87 ± 0.25 and 3.82 ± 0.36.
As for GGLSLHDYKLLKPSLAVNLADPYR [JUNB], the protein stability index runs as follows: under setting [1], 2.65 ± 0.13; under setting [2], 2.76 ± 0.098.
On the same counts, the results for GDQEGPRPARSTLDELLGRGMATK [FBF1] are 4.62 ± 0.27 and 4.73 ± 0.11.
Turning to EKEFMKGNQLISNNIKFKKSSILT [CLCN6], the protein stability index turned out to be 3.46 ± 0.17 under setting [1] and 3.48 ± 0.38 under setting [2].
Turning to RQKTSGPSVIQEIHQESGKAPSTD [C10orf62], the protein stability index is, setting by setting: under setting [1], 5.41 ± 0.073; under setting [2], 5.4 ± 0.057.
In the case of ADFGLARIYSYQMALTPVVVTLWY [CDK4], the protein stability index under setting [1] stood at 3.52 ± 0.99 and the protein stability index under setting [2] came to 2.78 ± 0.81.
Consider PFVSAMPTPMPHNKGTRFSEAWEY [ZBED2], for which the protein stability index is, setting by setting: under setting [1], 2.88 ± 0.23; under setting [2], 2.94 ± 0.11.
On the same counts, the results for YRGAVYADSGNFKRCINLWKYALD [FEM1C] are 2.32 ± 0.08 and 2.33 ± 0.18.
With SDARVVKDMATGKSKGYGFVSFFN [TIA1], the protein stability index turned out to be 2.79 ± 0.35 under setting [1] and 2.77 ± 0.16 under setting [2].
On the same counts, the results for IVADILLYVVIPTRRSTAEAFQIV [SPNS1] are 2.97 ± 0.34 and 3.1 ± 0.18.
Turning to MLREPAEPVAAEPKQSGSFRYLQG [PDLIM4], the protein stability index was found to be 4.18 ± 0.12 under setting [1] and 4.25 ± 0.17 under setting [2].
The corresponding values for CSPTAHDRECKLPPPSAPASEYCP [WDR88] are 4.55 ± 0.088 and 4.584 ± 0.039.
Turning to AGEGAEALARNLLVDGETGESFPA [NFE2L1], the protein stability index runs as follows: under setting [1], 5.37 ± 0.09; under setting [2], 5.41 ± 0.21.
On the same counts, the results for IVAIIPYFITLGTEIAEQEGNQKG [KCNA1] are 2.87 ± 0.71 and 2.55 ± 0.48.
With GVSFSTVENELMISYLMFLQILVY [FAM98B], the protein stability index worked out at 3.08 ± 0.45 under setting [1] and 3.22 ± 0.41 under setting [2].
As to TLPVLEASSWKKQVSHDFLETRFK [FBXO34], the protein stability index is, setting by setting: under setting [1], 3.16 ± 0.66; under setting [2], 3.1 ± 0.41.
On the same counts, the results for EAQERELRKREKAEEKERRRKEYD [LRRC59] are 5.4 ± 0.18 and 5.49 ± 0.3.
The sequence TGPPCDRQWTVSDWGPCSGSCGQG [ADAMTSL2] returned a protein stability index under setting [1] of 3.67 ± 0.45 and a protein stability index under setting [2] of 3.51 ± 0.24.
Sequence LRYQFSRPGPQSVPLQLSAHWQCG [FCHO1] came in with a protein stability index under setting [1] of 2.2 ± 0.09 and a protein stability index under setting [2] of 2.12 ± 0.13.
LLIFGKELSAIGSDTTPLPSWAAL [SNX8] yielded a protein stability index under setting [1] of 2.42 ± 0.37 and a protein stability index under setting [2] of 2.13 ± 0.28.
The corresponding values for VLSCEAATQTERRLDLAAVTLRRG [FAM189A2] are 4.25 ± 0.19 and 4.28 ± 0.34.
The corresponding values for AGPELDEMLREVDLNGDGTVDFDE [CABP4] are 5.67 ± 0.23 and 5.36 ± 0.11.
The corresponding values for MYILSPAVLRRIQLQPTSIEKEVF [GMPPB] are 2.29 ± 0.42 and 2.24 ± 0.41.
In the case of LAKEIRVKAEPFIKWLKEAEEESS [EIF5], the protein stability index reads like this: under setting [1], 3.33 ± 0.2; under setting [2], 3.9 ± 0.52.
IDILWRQDIDLGAGREVFDYSHRQ [NFE2L1]: the protein stability index reads like this: under setting [1], 2.24 ± 1; under setting [2], 2.49 ± 0.34.
The corresponding values for WGEMTLSLFSLLIAAAVYIMDTVG [SLC19A2] are 2.51 ± 0.44 and 2.46 ± 0.31.
On the same counts, the results for EERERKRRKEEEVQQQKLAEERRR [FAF2] are 5.34 ± 0.34 and 5.36 ± 0.25.
For SVSREARQTVPPLTVRLHTQSVSE [PWWP2B], the protein stability index reads like this: under setting [1], 4.29 ± 0.23; under setting [2], 4.42 ± 0.28.
KRDDYLEWPEYFMAVAFLSAQRSK [DCTD]: the protein stability index reads like this: under setting [1], 2.27 ± 0.19; under setting [2], 2.12 ± 0.35.
The corresponding values for RAALICLTLVLVASVLLQAVLYPR [CD207] are 2.44 ± 0.55 and 2.59 ± 0.53.
On the same counts, the results for VNKYYPPDFNPEKHGSLNRYHNSH [YJU2B] are 3.41 ± 0.21 and 3.21 ± 0.39.
With ENYDIIKTYHYLYLAMLERFQDGD [FEM1B], the protein stability index reads like this: under setting [1], 2.37 ± 0.56; under setting [2], 2.52 ± 0.54.
On the same counts, the results for QAEFTAMRDQYMRAGEGFIICYSI [RIT1] are 3.38 ± 0.48 and 3.04 ± 0.8.
The corresponding values for KVSQWWERLTKQEKRPLFLAPDFD [HACD3] are 2.34 ± 0.31 and 2.55 ± 0.089.
In the case of EAVPARGEPQQDCCVKTELLGEET [EHMT1], the protein stability index by setting is: under setting [1], 5.52 ± 0.27; under setting [2], 5.65 ± 0.26.
On the same counts, the results for TGSTYNLSSGMAVAGMPTAYDLSS [CARM1] are 3.27 ± 0.21 and 3.42 ± 0.44.
Regarding LSPEVLRKEAYGKPVDIWACGVIL [CAMK2B], the protein stability index came to 2.62 ± 0.71 under setting [1] and 2.51 ± 0.4 under setting [2].
In the case of FTDTSIILFLNKKDLFEEKIKKSP [GNAI1], the protein stability index is, setting by setting: under setting [1], 2.2 ± 0.97; under setting [2], 2.35 ± 1.1.
In the case of ASKKTAQPWVEVVLALRNMKNLLF [MFSD9], the protein stability index was found to be 2.75 ± 0.73 under setting [1] and 2.57 ± 0.39 under setting [2].
On the same counts, the results for YVHDPECVATTGDITVSVSTSFLP [FBXO3] are 2.46 ± 0.26 and 2.95 ± 0.15.
For the sequence RAKVKTDDIARIYQPKRYALSPKT [FAM98B], the protein stability index came out at 3.4 ± 0.26 under setting [1] and 3.5 ± 0.13 under setting [2].
Turning to TWRLPDVSEAGGSGRLSASWEPLS [FCHO1], the protein stability index amounted to 3.38 ± 0.13 under setting [1] and 3.24 ± 0.26 under setting [2].
KILGYLNTNVLSRDLIPPHVNFSH [SLC6A17]: the protein stability index by setting is: under setting [1], 2.2 ± 0.33; under setting [2], 2.375 ± 0.022.
In turn, EYTLTGLKFDMKYMNFRVKACNKA [FSD1] had a protein stability index under setting [1] of 2.79 ± 0.12 and a protein stability index under setting [2] of 2.77 ± 0.45.
Regarding TATDGGSPPLSTEAHFMLQVADIN [PCDHGA10], the protein stability index is, setting by setting: under setting [1], 4.18 ± 0.089; under setting [2], 4.19 ± 0.16.
Regarding YSFRNPDVQSAIWRMLTGRRSLA [OR3A1], the protein stability index runs as follows: under setting [3], 2.44 ± 0.51; under setting [4], 2.65 ± 0.36.
As to SVLKRPERSQEESPPGSTKRRKSM [CDC25A], the protein stability index runs as follows: under setting [1], 5.29 ± 0.29; under setting [2], 5.5 ± 0.2.
The corresponding values for RNRGRFSSTTGLFYSAEIICAIEY [PRKX] are 2.92 ± 0.47 and 2.91 ± 0.71.
As to RDEAIYECVASNNVGEISVSTRLT [PTPRD], the protein stability index under setting [1] came to 4.03 ± 0.34 and the protein stability index under setting [2] worked out at 3.91 ± 0.23.
The corresponding values for PPPLGPVVPVLVFPPDLVFRADQR [MOSPD3] are 3.25 ± 0.13 and 3.22 ± 0.32.
Consider ACSAPGGLVPSEKPPMMPQAQPAI [C2CD2L], for which the protein stability index by setting is: under setting [1], 4.24 ± 0.15; under setting [2], 4.18 ± 0.19.
The corresponding values for IRSPRPASVATWAIFVHRVGQPSI [CTBP1-DT] are 2.46 ± 0.5 and 2.47 ± 0.31.
The corresponding values for AAGRVCRPPGPAGTEQSRGLGHGS [CPOX] are 4.44 ± 0.25 and 4.53 ± 0.4.
On the same counts, the results for AFLLLPLPDELGSQLPQVLHVSLG [MOSPD3] are 2.96 ± 0.76 and 2.73 ± 0.49.
Regarding MKLFDSICNNKWFTDTSIILFLNK [GNAI1], the protein stability index was 2.6 ± 0.59 under setting [1] and 2.58 ± 0.59 under setting [2].
The corresponding values for LTQWKDSLVSLVLYNMDLSDDHIR [ZER1] are 2.52 ± 0.32 and 2.31 ± 0.097.
In the case of GKVAVGQDDLTVVLNEEGICTQKC [VPS39], the protein stability index stood at 4.91 ± 0.22 under setting [1] and 4.79 ± 0.28 under setting [2].
With WVLSIDGENAGSLTHIEAQNKIRA [PDLIM7], the protein stability index under setting [1] worked out at 3.02 ± 0.33 and the protein stability index under setting [2] was 3.28 ± 0.29.
The corresponding values for MEPSPLSPSGAALPLPLSLAPPPL [ZBTB22] are 4.07 ± 0.35 and 4.11 ± 0.18.
The corresponding values for ISPKARCLIRSLLRREPSERLTAP [TRIB1] are 2.22 ± 0.24 and 2.33 ± 0.39.
On the same counts, the results for MEIATYRKLLESEECRMSGEFPSP [KRT71] are 3.91 ± 0.53 and 4.07 ± 0.36.
Consider EQVFSLGDGVSGGFFGIRDSSFL [ZBED1], for which the protein stability index under setting [3] is 3.36 ± 0.31 and the protein stability index under setting [4] was 3.61 ± 0.27.
Turning to EISRGEYLYTYDSQITDSEHNSSL [ZNF8], the protein stability index by setting is: under setting [1], 4.29 ± 0.49; under setting [2], 4.25 ± 0.54.
Consider REQGPREQEPELSFLKQKEQLEAE [PBXIP1], for which the protein stability index reads like this: under setting [1], 5.5 ± 0.35; under setting [2], 5.58 ± 0.33.
With FKPLNSTPATTTEPPKPTFPAYTQ [ZNF207], the protein stability index runs as follows: under setting [1], 3.84 ± 0.26; under setting [2], 3.9 ± 0.14.
